Measured values published in patent US7803921B2, “Sulfotransferase 1E1 sequence variants” (Mayo Foundation for Medical Education and Research, priority 2002, dated 2010).
Where a chain is given by its changes, count along the chain named. Like-named read-outs stand apart in the source and are kept apart here. Marks after values point to notes of the source that are not given here.

B1: Ala32Val: SULT1E1 allozyme with valine in place of alanine at residue 32 (thymine at nucleotide 95) (protein, UniProt P49888 1-294, looked up, variant A32V)
Sulfotransferase 1E1: MNSELDYYEKFEEVHGILMYKDFVKYWDNVEVFQARPDDLVIATYPKSGTTWVSEIVYMIYKEGDVEKCKEDVIFNRIPFLECRKENLMNGVKQLDEMNSPRIVKTHLPPELLPASFWEKDCKIIYLCRNAKDVAVSFYYFFLMVAGHPNPGSFPEFVEKFMQGQVPYGSWYKHVKSWWEKGKSPRVLFLFYEDLKEDIRKEVIKLIHFLERKPSEELVDRIIHHTSFQEMKNNPSTNYTTLPDEIMNQKLSPFMRKGITGDWKNHFTVALNEKFDKHYEQQMKESTLKFRTEI
B2: Pro253His: SULT1E1 allozyme with histidine in place of proline at residue 253 (adenine at nucleotide 758) (protein, UniProt P49888 1-294, looked up, variant P253H)
Sulfotransferase 1E1: B1 Sulfotransferase 1E1 with V32A, P253H
B3: Asp22Tyr: SULT1E1 allozyme with tyrosine in place of aspartic acid at residue 22 (thymine at nucleotide 64) (protein, UniProt P49888 1-294, looked up, variant D22Y)
Sulfotransferase 1E1: B1 Sulfotransferase 1E1 with D22Y, V32A
B4: Wild type: reference human SULT1E1 enzyme (SEQ ID NO:7, GenBank U08098), recombinantly expressed in COS-1 cells (protein, listed as Homo sapiens)
chain: B1 Sulfotransferase 1E1 with V32A

Tests used:
[1] = tested on: SULT1E1; experiment: Enzyme thermal stability (T50) of recombinant SULT1E1 allozymes; type: physicochemical, human; settings: for T50 value as compared to the wild-type enzyme: in words; for Thermal Stability T50: temperature resulting in 50% thermal inactivation, 15 minutes at 28° C. to 46° C., mean ± SEM (n = 3)
Experimental: Enzyme thermal stability was measured by diluting COS-1 cell supernatant preparations for each of the recombinant SULT1E1 allozymes and incubating them in a water bath for 15 minutes at temperatures ranging from 28° C. to 46° C. The samples were placed on ice immediately after incubation. Aliquots of the same supernatant preparations also were kept on ice as controls. Enzyme activity was measured in both heated and unheated samples, and blank values were determined for each temperature studied.

[2] = tested on: SULT1E1; experiment: SULT1E1 allozyme substrate kinetics (apparent Km, Vmax) with E2 and PAPS as cosubstrates; type: biochemical, human; settings: for Vmax, PAPS as Varied Substrate / Km / Vmax, E2 as Varied Substrate: mean ± SEM (n = 3); for apparent Km for PAPS, fold higher than the wild type enzyme: PAPS as substrate; for apparent Km for PAPS, fold higher than the wild type enzyme / apparent Km for estradiol, fold higher than the wild type enzyme: versus wild type; for apparent Km for estradiol, fold higher than the wild type enzyme: estradiol as substrate
Description: Other biochemical properties of allozymes, such as apparent Km values, also can be altered relative to the reference SULT1E1. Apparent Km values can be calculated, for example, by using the method of Wilkinson with a computer program written by Cleland. Wilkinson (1961) Biochem. J. 80:324-332 and Cleland (1963) Nature 198:463-365. As described herein, the apparent Km values for PAPS varied more than 3-fold among the allozymes tested (Asp22Tyr, Ala32Val, and Pro253His).
Apparent Km values for each allozyme were determined with both cosubstrates. Initial experiments used 10-fold serial dilutions of E2 that ranged from 10^−3 to 10^−9 M. Apparent Km values were calculated by using the method of Wilkinson with a computer program written by Cleland (see, Wilkinson (1961) Biochem J 80:324-332; and Cleland (1963) Nature 198:463-365). Maximal activity for all allozymes was found at E2 concentrations near 100 nM. A second set of experiments was performed in the presence of 0.4 μM PAPS using eight concentrations of E2 that varied from 3.1 nM to 400 nM.

[3] = 50 nM E2, PAPS 2.7 nM to 150 nM
[4] = 50 nM E2, PAPS 2.7 nM to 150 nM, read-out: Apparent Km, PAPS as Varied Substrate
[5] = 0.4 μM PAPS, E2 3.1 nM to 400 nM
[6] = 0.4 μM PAPS, E2 3.1 nM to 400 nM, read-out: Apparent Km, E2 as Varied Substrate

Row | Molecule | T50 value as compared to the wild-type enzyme [1] | Thermal Stability T50 [1] | Vmax, PAPS as Varied Substrate [2, 3] | Km [2, 4] | Vmax, E2 as Varied Substrate [2, 5] | Km [2, 6] | apparent Km for PAPS, fold higher than the wild type enzyme [2] | apparent Km for estradiol, fold higher than the wild type enzyme [2]
1 | B1 | reduced T50 values | 36.7 ± 1.2 °C | 5.7 ± 0.1^a nmol/hr/β-galactosidase units | 0.065 ± 0.0042 µM | 22.8 ± 6.6 nmol/hr/β-galactosidase units | 0.044 ± 0.005 µM | comparable to those of the wild type SULT1E1 enzyme | comparable to those of the wild type SULT1E1 enzyme
2 | B2 |  | 38.4 ± 0.46 °C | 34.8 ± 0.2^a nmol/hr/β-galactosidase units | 0.18 ± 0.0075 µM | 58.6 ± 2.5^b nmol/hr/β-galactosidase units | 0.097 ± 0.007 µM | ~2.8 fold | approximately 2.5 fold
3 | B3 | reduced T50 values | 35.0 ± 0.32^c ° C. | 1.9 ± 0.1^a nmol/hr/β-galactosidase units | 0.24 ± 0.0092 µM | 4.7 ± 0.3^b nmol/hr/β-galactosidase units | 0.22 ± 0.03 µM | 3.3 fold | 6 fold
4 | B4 |  | 38.5 ± 0.92 °C | 27.2 ± 0.7^a nmol/hr/β-galactosidase units | 0.056 ± 0.0029 µM | 26.8 ± 4.4 nmol/hr/β-galactosidase units | 0.03 ± 0.005 µM |  | 
